In PMC7560960 (Cellular microbiology, 2018):

Assays:
[1] = molecular target: E-cadherin (Homo sapiens) (UniProt P12830); conditions: cited from earlier work
[2] = molecular target: T1, recombinant human E-Cad (Gln23 - Pro621 fused to human IgG Fc) (human, UniProt P12830 23-621); assay: SPR
T1 sequence (looked up): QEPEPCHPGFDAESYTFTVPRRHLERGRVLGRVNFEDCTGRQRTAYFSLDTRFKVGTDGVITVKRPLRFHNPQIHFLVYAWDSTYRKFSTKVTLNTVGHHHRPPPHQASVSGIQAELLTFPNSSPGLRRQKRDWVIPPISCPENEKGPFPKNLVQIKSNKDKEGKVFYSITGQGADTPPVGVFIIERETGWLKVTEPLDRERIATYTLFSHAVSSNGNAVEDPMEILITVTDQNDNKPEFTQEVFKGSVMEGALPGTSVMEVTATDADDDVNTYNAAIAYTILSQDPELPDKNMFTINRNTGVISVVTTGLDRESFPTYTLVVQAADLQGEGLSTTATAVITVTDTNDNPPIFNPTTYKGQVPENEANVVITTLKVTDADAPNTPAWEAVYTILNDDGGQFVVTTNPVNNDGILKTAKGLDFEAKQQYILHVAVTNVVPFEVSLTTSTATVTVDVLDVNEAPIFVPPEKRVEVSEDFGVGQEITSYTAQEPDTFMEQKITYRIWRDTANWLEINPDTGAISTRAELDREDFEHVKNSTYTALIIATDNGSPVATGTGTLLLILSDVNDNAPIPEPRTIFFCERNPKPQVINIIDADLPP

[3] = molecular target: T2, recombinant human VE-cad (Asp48-Gln593 fused to human IgG Fc) (human, UniProt P33151 48-593); assay: SPR
T2 sequence (looked up): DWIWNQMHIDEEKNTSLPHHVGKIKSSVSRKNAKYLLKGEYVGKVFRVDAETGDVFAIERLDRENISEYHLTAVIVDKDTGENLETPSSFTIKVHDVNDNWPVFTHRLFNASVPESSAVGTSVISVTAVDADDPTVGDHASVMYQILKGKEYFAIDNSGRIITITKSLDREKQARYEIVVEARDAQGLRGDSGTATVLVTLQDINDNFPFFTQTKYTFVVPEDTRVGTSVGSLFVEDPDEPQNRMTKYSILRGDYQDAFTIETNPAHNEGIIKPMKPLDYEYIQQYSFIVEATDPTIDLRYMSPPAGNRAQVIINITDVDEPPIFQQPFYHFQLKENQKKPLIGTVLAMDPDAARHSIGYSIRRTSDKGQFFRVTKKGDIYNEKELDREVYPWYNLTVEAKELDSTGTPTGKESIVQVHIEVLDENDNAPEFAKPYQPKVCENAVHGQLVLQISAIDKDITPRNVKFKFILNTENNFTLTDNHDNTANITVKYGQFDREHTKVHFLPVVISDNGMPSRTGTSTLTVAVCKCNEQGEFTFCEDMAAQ

Chain of E-cadherin (Homo sapiens) (P12830 155-709): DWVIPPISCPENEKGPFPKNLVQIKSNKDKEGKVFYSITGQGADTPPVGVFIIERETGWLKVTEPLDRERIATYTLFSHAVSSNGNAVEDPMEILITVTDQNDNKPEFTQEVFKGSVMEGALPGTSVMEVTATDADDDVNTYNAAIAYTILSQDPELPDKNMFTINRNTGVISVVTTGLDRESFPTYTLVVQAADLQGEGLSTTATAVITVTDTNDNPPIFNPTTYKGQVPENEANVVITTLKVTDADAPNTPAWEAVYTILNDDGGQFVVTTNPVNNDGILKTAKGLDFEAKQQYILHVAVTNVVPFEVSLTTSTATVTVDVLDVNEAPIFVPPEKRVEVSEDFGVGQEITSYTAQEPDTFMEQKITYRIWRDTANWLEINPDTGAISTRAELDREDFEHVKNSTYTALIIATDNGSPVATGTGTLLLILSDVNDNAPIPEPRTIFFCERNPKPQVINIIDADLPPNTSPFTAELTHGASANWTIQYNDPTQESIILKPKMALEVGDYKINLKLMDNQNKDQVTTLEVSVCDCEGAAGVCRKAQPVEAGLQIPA
Chain of InlA (P0DJM0 36-496): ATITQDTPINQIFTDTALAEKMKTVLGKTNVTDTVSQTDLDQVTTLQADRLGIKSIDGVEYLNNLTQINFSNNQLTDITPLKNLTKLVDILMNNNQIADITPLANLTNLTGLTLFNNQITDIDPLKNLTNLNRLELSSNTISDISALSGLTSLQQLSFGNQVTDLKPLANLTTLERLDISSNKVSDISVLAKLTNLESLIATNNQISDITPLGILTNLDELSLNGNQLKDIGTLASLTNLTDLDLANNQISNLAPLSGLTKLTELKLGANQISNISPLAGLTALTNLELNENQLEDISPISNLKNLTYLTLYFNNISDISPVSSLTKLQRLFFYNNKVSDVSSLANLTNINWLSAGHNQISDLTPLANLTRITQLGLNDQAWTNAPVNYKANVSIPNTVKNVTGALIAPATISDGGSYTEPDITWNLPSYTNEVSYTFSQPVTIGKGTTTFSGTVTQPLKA

Molecule	Kd [1] [µM]	Kd [2] [µM]	Kd [3] [µM]
InlA (from UniProt P0DJM0)	8	–	–
recombinant LIC10831, histidine tag removed (natural protein) EEPGTYRDLTKALQNPLEVRVLDLSRQELKTLPIEIGKLKNLQRLYLHYNQLTVLPQEIEQLKNLQLLYLRSNRLTTLPKEIEQLKNLQVLDLGSNQLTVLPQEIEQLKNLQLLYLHSNRLTTLSKDIEQLQNLKSLDLSNNQLTTLPNEIEQLKNLKSLYLSENQFATFPKEIGQLQNLKVLFLNNNQITILPNEIAKLKKLQYLYLSDNQLITLPKEIEQLKNLQTLDLSYNQLTILPKEVGQLENLQTLDLRNNQLKTLPKEIEQLKNLQTLFLSNNQLTILPQEIGKLKNLLWLSLVYNQLTTLPNEIEQLKNLQTLYLNNNQFSSQEKKRIRKLLPKCQIYFD	–	2.3	5.8
